Data on nine molecules can be found in patent publication US5985278A (Merck Patent Gesellschaft mit Beschrankter Haftung, priority 1994, dated 1999).

The target of assay [1] is purified human placental integrin αvβ3 (human) (UniProt P06756). Briefly: pre-block competition: ligand pre-bound to αvβ3-coated plates, labelled 17E6 as probe.
Assay [2] concerns the target T1, integrin αvβ3 on human cells (human, UniProt P06756).
Assay [3] deals with purified human placental integrin αvβ3 (human) (UniProt P06756). Briefly: isolated receptor assay, vitronectin on αvβ3-coated plates.
The subject of assay [4] is human melanoma and carcinoma cell lines. As to the kind of experiment: αV-mediated cell attachment to vitronectin, cell line panel. The following applies: read-out: IC50 in cellular assay. Format: cell-based. As for the experimental part:
(§1) Cell Attachment Assays were as previously described (Goodman et al., 1991), using hexosaminidase activity (Landegren, 1984) to detect attached cells. Dilutions and cell suspensions were in attachment buffer (RPMI, 1% BSA, 25 mM HEPES; pH 7.4). Matrix proteins were coated onto 96- or 48-well plates, the wells were blocked with BSA and serially diluted MAbs were added to the wells followed by cells (2.5×10^4 -5×10^4). After 1 h at 37° C., non-adherent cells were washed away and attached cells counted against a standard curve run in parallel. Inhibition of attachment was calculated by using wells with no MAbs as reference. Typically, over 70% of added cells had attached to vitronectin at 1 h. Cell attachment to wells coated with BSA alone was routinely less than 5% of specifically attached cells.

Assay [5] deals with T2, integrin αvβ5 on human cells (human, UniProt P06756). Briefly: cell-based or functional assay.
Assay [6] has as its target T1, integrin αvβ3 on human cells. Briefly: cell-based or functional assay.
Assay [7] has as its target purified human placental integrin αvβ3 (human) (UniProt P06756). Briefly: ELISA on isolated αvβ3. (In an ELISA, binding on a coated surface is turned into a signal by an enzyme label.)
Assay [8] addresses integrin αvβ1 on V+B2 cells.
The next assay has as its system αvβ5 (UCLA-P3 cells). Briefly: Cell attachment to vitronectin mediated by αvβ5 (UCLA-P3 cells). Format: cell-based, human. To be noted: vitronectin, FIG. 11. As for the experimental part:
as §1

In a further assay the test system is αvβ1 (V+B2 cells). Briefly: Cell attachment to vitronectin mediated by αvβ1 (V+B2 cells). Format: cell-based. The following applies: FIG. 11. The protocol:
as §1

For assay [9], the system named is αvβ3 (WM164 and M21 cells). Briefly: Cell attachment to vitronectin mediated by αvβ3 (WM164 and M21 cells). To be noted: FIG. 11. The class given is cell-based, human. The protocol:
as §1

A further assay relates to purified αvβ3. As to the kind of experiment: ELISA on purified αvβ3. Format: binding, human. To be noted: FIG. 10.
Assay [10] addresses integrin αIIbβ3 on M21-L-IIb cells (human, UniProt P08514). Briefly: CELISA, fixed M21-L-IIb cells.
Assay [11] deals with human αv-integrin chain on the cell surface (human) (UniProt P06756).
Assay [12] addresses purified human placental integrin αvβ3 (human) (UniProt P06756). Briefly: direct competition with biotinylated vitronectin on αvβ3-coated plates, 70 nM antibody.
For assay [13], the target named is integrin β3 chain, intracellular pool of M21-L cells (human, UniProt P05106). As to the kind of experiment: flow cytometry, permeabilized M21-L cells.
Assay [14] concerns the target human αv-integrin chain on the cell surface (human) (UniProt P06756). More on the design: IC50, M21 cell attachment to vitronectin: unit not given beside the values.
Assay [15] has as its target T2, integrin αvβ5 on human cells. More on the design: IC50, M21 cell attachment to vitronectin: unit not given beside the values.
Assay [16] deals with human αv-integrin chain on the cell surface (human) (UniProt P06756). The source holds these as a separate data set.
Assay [17] deals with human αv-integrin chain on the cell surface (human, UniProt P06756). As to the kind of experiment: cell-based or functional assay.

“And” between values parts separate entries of the source, which are not always exact repeats. Equal values may be shown once. Read-outs that look alike come from different tables or passages of the source.

fibrinogen (ligand) registered a % block of labelled 17E6 binding in assay [1] of less than 10%.
As to LM609 (antibody), the IC50, WM793 cell attachment to vitronectin in assay [2] came to 0.6 µg/mL.
“vitronectin (from UniProt P04004) (ligand)”: the % block of labelled 17E6 binding in [1] was less than 10%. For the same molecule, in assay [3], the saturation concentration was 5 µg ml^-1 and 10 nM.
Usually IC50 stands for the concentration that inhibits the measured activity by half. Turning to `CC(C)[C@@H]1NC(=O)[C@@H](Cc2ccccc2)NC(=O)[C@H](CC(=O)O)NC(=O)CNC(=O)[C@H](CCCNC(=N)N)NC1=O` [cRGDfV, cyclic peptide: Arg-Gly-Asp-DPhe-Val, reference compound], the IC50 in [4] was roughly 1000 nM.

B1: 17E6 F(ab')2 fragment (other)
VH: QVQLQQSGAELAEPGASVKMSCKASGYTFSSFWMHWVKQRPGQGLEWIGYINPRSGYTECNEIFRDKATMTADTSSSTAYMQLSGLTSEDSAVYYCASFLGRGAMDYWGQGTSVTVSS
VL: DIQMTQTTSSLSASLGDRVIISCRASQDISNYLSWYQQKPDGTVKLLIFYTSKLHSGVPSRFSGSGSGTDYSLTISNLDQEDIATYFCQQGNTFPYTFGGGTKVEMR
By EC50 is commonly meant the concentration needed to bring the measured effect to its halfway point. Consider B1, for which the “IC50, UCLA-P3 cell attachment to vitronectin” value in assay [5] was ~0.1 µg ml^-1 and ~700 pM. Also, in [6], the “IC50, WM164 and M21 cell attachment to vitronectin” value (shortened to “IC50, WM164 and M21 cell attachment”) is ~0.5 µg ml^-1 and ~3 nM. The molecule also came in with an EC50 in assay [7] of 0.001 µg/mL.

B2: 17E6 F(ab') fragment (Fab, V domains shown)
VH: QVQLQQSGAELAEPGASVKMSCKASGYTFSSFWMHWVKQRPGQGLEWIGYINPRSGYTECNEIFRDKATMTADTSSSTAYMQLSGLTSEDSAVYYCASFLGRGAMDYWGQGTSVTVSS
VL: DIQMTQTTSSLSASLGDRVIISCRASQDISNYLSWYQQKPDGTVKLLIFYTSKLHSGVPSRFSGSGSGTDYSLTISNLDQEDIATYFCQQGNTFPYTFGGGTKVEMR
As for B2, the “fold activity in cell attachment to vitronectin, against αvβ3” value in [5] and in [8] was 10000 fold in each case. Further, in assay [6], the “IC50, WM164 and M21 cell attachment” value was > 50 µg ml^-1 and > 400 nM. The molecule also had a concentration giving a half-maximal response (EC50) in assay [7] of 0.001 µg/mL.

B3: F(ab')2: F(ab')2 fragment of 17E6 prepared by pepsin cleavage (antibody, V domains shown)
VH: QVQLQQSGAELAEPGASVKMSCKASGYTFSSFWMHWVKQRPGQGLEWIGYINPRSGYTECNEIFRDKATMTADTSSSTAYMQLSGLTSEDSAVYYCASFLGRGAMDYWGQGTSVTVSS
VL: DIQMTQTTSSLSASLGDRVIISCRASQDISNYLSWYQQKPDGTVKLLIFYTSKLHSGVPSRFSGSGSGTDYSLTISNLDQEDIATYFCQQGNTFPYTFGGGTKVEMR
On to B3, for which the “IC50, cell attachment mediated by αvβ5 (UCLA-P3 cells)” value in the assay with αvβ5 (UCLA-P3 cells) is on record as ~ 0.1 μg ml^-1. Moreover, the “IC50, cell attachment mediated by αvβ1 (V+B2 cells)” value in the assay on αvβ1 (V+B2 cells) is ~ 0.1 μg ml^-1. The “IC50, αvβ3 attachment (WM164 and M21 cells)” value in [9] was ~ 0.5 μg ml^-1. Moreover, the “50% saturation in ELISA on isolated αvβ3” value with purified αvβ3 was ~ 1 ng ml^-1.

B4: monoclonal antibody 17E6 (antibody, V domains shown)
VH: QVQLQQSGAELAEPGASVKMSCKASGYTFSSFWMHWVKQRPGQGLEWIGYINPRSGYTECNEIFRDKATMTADTSSSTAYMQLSGLTSEDSAVYYCASFLGRGAMDYWGQGTSVTVSS
VL: DIQMTQTTSSLSASLGDRVIISCRASQDISNYLSWYQQKPDGTVKLLIFYTSKLHSGVPSRFSGSGSGTDYSLTISNLDQEDIATYFCQQGNTFPYTFGGGTKVEMR
Turning to B4, the binding result in assay [10] is “no binding”. The molecule also registered an IC50, cellular attachment assay in assay [11] of 0.1 µg/mL. The molecule further yielded a % inhibition of vitronectin binding in assay [12] of less than 30%. In assay [6], the “IC50, WM164 and M21 cell attachment” value was ~0.5 µg ml^-1 and ~3 nM; the “IC50, WM793 cell attachment to vitronectin” value was roughly 0.06 µg/mL. Moreover, in assay [13], the binding result is given as “no binding”. In addition, in [14], the IC50, M21 cell attachment to vitronectin was determined as 0.1 and the M21 cell attachment to vitronectin, purified antibody was 85%. The IC50, UCLAP3 cell attachment to vitronectin in assay [15] was 0.03 µg/mL. For the same molecule, the IC50, αV-mediated cell attachment in assay [16] fell in the range of 0.3 to 1 nM.

B5: linear peptide GRGDSPK (peptide)
peptide: GRGDSPK
Take B5: in [17], the “IC50, αV-mediated cell attachment” value is roughly 5000 nM.
